Source: patent US20240158497A1 (published 2024)

T1: human gp130 extracellular domain (E23-E619) with C-terminal mouse IgG2a Fc (human)
T1 construct: dimeric; also called hGP130-mFc; human GP130-mFc
T1 chain: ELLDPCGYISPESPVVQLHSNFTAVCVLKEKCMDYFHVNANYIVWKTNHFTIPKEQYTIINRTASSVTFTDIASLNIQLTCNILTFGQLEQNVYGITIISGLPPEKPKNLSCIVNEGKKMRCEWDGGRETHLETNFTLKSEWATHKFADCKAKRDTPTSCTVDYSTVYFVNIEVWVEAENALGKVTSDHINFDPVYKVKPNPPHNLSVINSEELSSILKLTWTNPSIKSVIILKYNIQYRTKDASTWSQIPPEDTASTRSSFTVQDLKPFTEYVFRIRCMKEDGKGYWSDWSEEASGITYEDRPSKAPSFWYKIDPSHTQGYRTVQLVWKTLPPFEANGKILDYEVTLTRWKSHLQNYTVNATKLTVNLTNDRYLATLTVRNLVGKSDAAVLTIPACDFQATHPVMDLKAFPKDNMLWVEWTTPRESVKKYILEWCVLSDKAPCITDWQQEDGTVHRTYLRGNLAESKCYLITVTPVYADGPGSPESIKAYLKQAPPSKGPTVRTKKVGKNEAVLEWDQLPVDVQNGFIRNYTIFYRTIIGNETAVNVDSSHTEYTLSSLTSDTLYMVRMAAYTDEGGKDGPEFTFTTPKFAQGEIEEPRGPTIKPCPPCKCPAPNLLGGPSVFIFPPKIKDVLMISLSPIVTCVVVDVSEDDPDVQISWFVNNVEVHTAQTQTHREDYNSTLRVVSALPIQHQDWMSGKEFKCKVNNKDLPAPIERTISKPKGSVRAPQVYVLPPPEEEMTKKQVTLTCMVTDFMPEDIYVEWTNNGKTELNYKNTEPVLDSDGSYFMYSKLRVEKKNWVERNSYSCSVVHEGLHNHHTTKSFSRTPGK


Tests used:
[1] = biological target: T2, human GP130 full length extracellular domain with C-terminal myc-myc-hexahistidine tag (human, UniProt P40189 23-619); experiment: Luminex, antigen captured on anti-myc beads
T2 construct: Monomeric; also called human GP130-MMH; hGP130-mmH
Method: (§1) Aliquots of microspheres with immobilized anti-myc monoclonal antibodies, prepared as described above, were added individually to 1 mL of the each of these protein supernatants and to 500 uL of purified GP130 protein. The microspheres were gently mixed, incubated for two hours at 25° C., washed twice with 1 mL of DBPS, centrifuged to remove the supernatant and finally resuspended in 1 mL of DPBS buffer. Forty eight μL of anti-myc IgG coupled microspheres from individual reactions with full length human GP130 and with each of the human GP130 domain proteins were withdrawn and mixed together in 3.6 mL of PBS+20 mg/mL BSA+0.05% sodium azide (blocking buffer).
(§2) From this mixed pool, 75 μL of microspheres were plated per well on a 96 well filter plate (Millipore, Cat. No: MSBVN1250) and mixed with 25 μL of individual anti-human GP130 monoclonal antibodies (0.5 or 5 μg/mL), incubated for two hours at 25° C. and then washed twice with 200 μL of DPBS with 0.05% Tween 20 (washing buffer). To detect and quantify the amounts of bound anti-GP130 antibody levels to individual microspheres, either 100 μL of 2.5 μg/mL R-Phycoerythrin conjugated goat F(ab′)2 anti-human kappa (Southern Biotech, Cat #2063-09) in blocking buffer, was added and incubated for 30 minutes at 25° C. After 30 minutes, the samples were washed twice with 200 μL of washing buffer and resuspended in 150 μL of wash buffer. The Median Fluorescence intensity (MFI) of the microspheres was measured in a Luminex Analyzer.

[2] = biological target: T3, human GP130 delta D1 with C-terminal myc-myc hexahistidine tag (human, UniProt P40189 124-619); experiment: Luminex, antigen captured on anti-myc beads
T3 construct: used as CHO supernatant; also called human GP130 delta D1-MMH; GP130 Delta D1 extracellular domain
Method: as §1, §2

[3] = biological target: T4, human GP130 delta D1-D3 with C-terminal myc-myc hexahistidine tag (human, UniProt P40189 329-619); experiment: Luminex, antigen captured on anti-myc beads
T4 construct: used as CHO supernatant; also called human GP130 delta D1-D3-MMH; GP130 Delta D1-D3 extracellular domain
Method: as §1, §2

[4] = biological target: T1, human gp130 extracellular domain …; experiment: blocking ELISA, 2.5 nM hGP130-mFc on plate-bound CNTFR/CNTF complex
Method: The experiment was carried out using the following procedure. Human CNTFRα was coated at a concentration of […] in HBSS on a 96-well microtiter plate overnight at 4° C. […] Human CNTF at a concentration of 1 μg/ml in HBSS was added to the plate bound CNTFRα for 1 hour at room temperature. In separate dilution plates, a constant amount of 2.5 nM of human GP130-mFc protein was titrated with antibodies ranging from 3.4 pM to 200 nM in serial dilution and with no antibody present. These solutions were incubated for 1 hour at room temperature (RT) and subsequently transferred to the microtiter plates with CNTFRα/CNTF complex without washing. The plates were incubated for 2 hours at RT, washed with PBST buffer, and plate-bound hGP130-mFc was detected with an anti-mFc polyclonal antibody conjugated with horseradish peroxidase (HRP) (Jackson ImmunoResearch Inc). Samples were developed with a TMB solution (BD Biosciences, substrate A and B mixed at 1:1 ratio as per manufacturer's instructions) to produce a colorimetric reaction and then neutralized with 1M sulfuric acid before measuring absorbance at 450 nm on a Victor X5 plate reader.
Data analysis was performed using a sigmoidal dose-response model within Prism™ software (GraphPad). […] Percent blockade at maximum concentration tested was calculated as an indicator of the ability of the antibodies to block binding of GP130 to CNTFRα/CNTF on the plate as determined from the dose curve. The ratio of the reduction in signal observed in the presence of the highest tested concentration of 200 nM antibody, relative to the difference between the signal with 2.5 nM GP130 with no antibody (0% blocking) and the background signal from HRP-conjugated secondary antibody alone (100% blocking), was subtracted from 100% blocking.

T4 sequence (P40189 other isoform, or with tags, fused parts or gaps mutant limits assumed): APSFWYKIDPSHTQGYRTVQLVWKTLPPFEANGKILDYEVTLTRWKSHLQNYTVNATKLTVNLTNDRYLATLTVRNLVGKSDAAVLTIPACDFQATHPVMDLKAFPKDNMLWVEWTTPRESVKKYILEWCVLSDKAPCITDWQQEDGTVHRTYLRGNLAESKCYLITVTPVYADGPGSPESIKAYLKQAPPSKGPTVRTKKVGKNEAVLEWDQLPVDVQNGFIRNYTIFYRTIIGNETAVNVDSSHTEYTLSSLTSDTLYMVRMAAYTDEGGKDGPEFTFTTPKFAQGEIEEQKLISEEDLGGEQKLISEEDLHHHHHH
T3 sequence (P40189 other isoform, or with tags, fused parts or gaps mutant limits assumed): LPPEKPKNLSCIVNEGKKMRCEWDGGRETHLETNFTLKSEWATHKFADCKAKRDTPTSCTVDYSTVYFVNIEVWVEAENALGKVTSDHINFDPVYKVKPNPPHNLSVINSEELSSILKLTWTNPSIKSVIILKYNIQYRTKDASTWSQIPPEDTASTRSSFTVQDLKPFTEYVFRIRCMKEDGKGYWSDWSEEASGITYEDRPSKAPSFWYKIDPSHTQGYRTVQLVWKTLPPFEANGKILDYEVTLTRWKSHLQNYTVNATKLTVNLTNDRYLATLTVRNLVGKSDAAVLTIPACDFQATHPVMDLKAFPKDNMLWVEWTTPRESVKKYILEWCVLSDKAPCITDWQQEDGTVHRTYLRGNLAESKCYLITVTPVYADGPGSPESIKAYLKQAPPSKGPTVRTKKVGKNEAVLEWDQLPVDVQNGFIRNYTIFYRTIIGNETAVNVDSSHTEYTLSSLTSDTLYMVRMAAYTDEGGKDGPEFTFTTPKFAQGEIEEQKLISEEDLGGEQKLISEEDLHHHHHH

Row | Binder | Luminex MFI signal [1] | Luminex MFI signal [2] | Luminex MFI signal [3] | IC50 [4] | Max Blocking of Antibody at 200 nM (%) [4]
1 | MAb16665 (antibody, V domains shown, hIgG4 isotype control used) VH: QVQLVESGGGVVQPGRSLRLACAASGFTFRSYGMHWVRQAPGKGLEWVAVIWYDGSNKYYTDSVKGRFTISRDNSKNTLYLQMNSLRAEDTAMYYCAIDKWATVTTYLFDYWGQGTLVTVSS VL: not shown | 16300 MFI | 119 MFI | 116 MFI |  | -47.1%
2 | MAb16664 (antibody, V domains shown, hIgG4 isotype control used) VH: QVQLVQSGTEVKKPGSSVKVSCKASGGTFSTYPINWVRQAPGQGLEWMGGIIPIFGTASYAQKFQGRVAITTDESTSTAYMELNSLRSEDTAVYYCARERPNWGSNDYWGQGTLVTVSS VL: not shown | 19300 MFI | 442 MFI | 419 MFI |  | -46.5%
3 | MAb16614 (antibody, V domains shown, hIgG4 isotype control used) VH: QVQLVESGGGVVQPGGSLRLSCAASGFTFSTYDIHWVRQAPGKGLEWVAVISFDGSNRNYGDSVKGRFTISRDNSDNTLFLEMNNLRFEDTAVYYCAKEGYGVDFQHWGQGTLVTVSS VL: not shown | 18700 MFI | 2900 MFI | 56 MFI |  | -14.8%

Further lines, results first:

Row | Luminex MFI signal [1] | Luminex MFI signal [2] | Luminex MFI signal [3] | IC50 [4] | Max Blocking of Antibody at 200 nM (%) [4] | Binder
4 | 13900 MFI | 3050 MFI | 16 MFI | 6.51 nM | 81.9% | MAb16662 (antibody, V domains shown, hIgG4 isotype control used) VH: EVQLVESGGGLVQPGGSLRLSCTASGFTFSNYAIFWVRQAPGKGLEYVSGISNNGVTKYYADSVRDRFTISRDNSRNTVSIQMDSLRTEDMAVYYCARENWGSDDGFDIWGQGTMVTVSS VL: not shown
5 | 15200 MFI | 12000 MFI | 20900 MFI |  | -22.8% | MAb16683 (antibody, V domains shown, hIgG4 isotype control used) VH: QVQLVESGGGLVKPGGSLRLSCAASGFTFSDYYMTWIRQTPGKGLDWVSYISSSGTNKYNADSVKGRFTISRDNAKNSLYLQMNSLRAEDTAVYYCVRDPPWGMDVWGQGTTVTVSS VL: not shown
6 | 17600 MFI | 12600 MFI | 15100 MFI | 12.3 nM | 47.1% | MAb16669 (antibody, V domains shown, hIgG4 isotype control used) VH: EVQLVESGGGLVQPGGSLRLSCAASGFTFSSYAMNWVRQAPGKGLEWVSAISGSGDSTYYTDSVKGRFTISRDNSKNTLYLQMNTLRAEDTAVYYCAKEEIVMLVGATPGWFDPWGQGTLVTVSS VL: not shown
7 | 18100 MFI | 364 MFI | 686 MFI |  | -15.4% | MAb16676 (antibody, V domains shown, hIgG4 isotype control used) VH: QVQLVQSGAEVMKPGASVKVSCRASGYTFSSYDINWVRQAPGQGLEWMGWISTATGNTNYPQKVQGRVTMTTDTSTNTAYMELRSLRSDDTAVYYCTREGNSKGWLDPWGQGTLVTVSS VL: not shown
